Laboratory results taken from patent publication US20040214255A1 (MYRIAD GENETICS, published 2004).
One block for each binder: values may come before it.

What was measured:
Assay in all cases: yeast two-hybrid
[1] = biological target: T1, Dynamin, amino acids 250-700 (human, UniProt Q05193 250-700)
T1 construct: range 250-700
T1 sequence (looked up): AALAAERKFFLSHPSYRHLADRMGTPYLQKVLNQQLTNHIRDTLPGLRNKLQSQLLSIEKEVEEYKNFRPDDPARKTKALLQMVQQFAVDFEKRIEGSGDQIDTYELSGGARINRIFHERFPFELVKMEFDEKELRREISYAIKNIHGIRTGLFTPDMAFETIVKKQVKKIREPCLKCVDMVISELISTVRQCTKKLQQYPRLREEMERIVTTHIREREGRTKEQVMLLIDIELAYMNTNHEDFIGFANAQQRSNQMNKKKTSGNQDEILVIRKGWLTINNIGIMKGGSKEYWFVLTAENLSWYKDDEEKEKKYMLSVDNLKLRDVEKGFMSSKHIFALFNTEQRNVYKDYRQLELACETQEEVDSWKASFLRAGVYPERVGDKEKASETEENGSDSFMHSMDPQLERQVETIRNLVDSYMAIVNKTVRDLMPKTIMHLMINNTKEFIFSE
Source text: (§1) The new construct was selected directly in the yeast strain PNY200 for its ability to drive tryptophane synthesis (genotype of this strain: […] trp1-901 leu2-3,112 ura3-52 his3-200 ade2 gal4Δ gal80). In these yeast cells, the bait was produced as a C-terminal fusion protein with the DNA binding domain of the transcription factor Ga14 (amino acids 1 to 147). Prey libraries were transformed into the yeast strain BK100 (genotype of this strain: MATα trp1-901 leu2-3,112 ura3-52 his3-200 gal4Δ gal80 LYS2::GAL-HIS3 GAL2-ADE2 met2::GAL7-lacZ), and selected for the ability to drive leucine synthesis. In these yeast cells, each cDNA was expressed as a fusion protein with the transcription activation domain of the transcription factor Ga14 (amino acids 768 to 881) and a 9 amino acid hemagglutinin epitope tag. PNY200 cells (MATα mating type), expressing the bait, were then mated with BK100 cells (MATa mating type), expressing prey proteins from a prey library. The resulting diploid yeast cells expressing proteins interacting with the bait protein were selected for the ability to synthesize tryptophan, leucine, histidine, and adenine. DNA was prepared from each clone, transformed by electroporation into E. coli strain KC8 (Clontech KC8 electrocompetent cells, Catalog No. C2023-1), and the cells were selected on ampicillin-containing plates in the absence of either tryptophane (selection for the bait plasmid) or leucine (selection for the library plasmid). DNA for both plasmids was prepared and sequenced by the dideoxynucleotide chain termination method. The identity of the bait cDNA insert was confirmed and the cDNA insert from the prey library plasmid was identified using the BLAST program to search against public nucleotide and protein databases. Plasmids from the prey library were then individually transformed into yeast cells together with a plasmid driving the synthesis of lamin and 5 other test proteins, respectively, fused to the Ga14 DNA binding domain. Clones that gave a positive signal in the β-galactosidase assay were considered false-positives and discarded. […] Clones that gave a positive signal in the β-galactosidase assay were considered true positives.

[2] = biological target: T2, NuMA1, amino acids 98-365 (human, UniProt Q14980 98-365)
T2 construct: range 98-365; also called nuclear mitotic apparatus protein NuMA1
T2 sequence (looked up): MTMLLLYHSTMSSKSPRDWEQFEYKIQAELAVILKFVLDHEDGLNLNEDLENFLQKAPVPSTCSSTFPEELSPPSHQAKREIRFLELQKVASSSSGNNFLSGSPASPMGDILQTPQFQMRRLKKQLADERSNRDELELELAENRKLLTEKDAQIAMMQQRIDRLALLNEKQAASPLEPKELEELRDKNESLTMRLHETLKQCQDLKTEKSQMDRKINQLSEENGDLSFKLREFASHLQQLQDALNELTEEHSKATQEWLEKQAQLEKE
Source text: as §1

[3] = biological target: T3, BAP31, amino acids 111-247 (human, UniProt P51572 111-246)
T3 construct: range 111-247
T3 sequence (looked up): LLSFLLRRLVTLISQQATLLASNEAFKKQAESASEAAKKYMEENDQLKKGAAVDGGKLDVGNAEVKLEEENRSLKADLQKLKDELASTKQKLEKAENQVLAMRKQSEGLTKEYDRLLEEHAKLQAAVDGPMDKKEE
Source text: as §1

[4] = biological target: T4, Dynamin, amino acids 104-365 (human, UniProt Q05193 104-365)
T4 construct: range 104-365
T4 sequence (looked up): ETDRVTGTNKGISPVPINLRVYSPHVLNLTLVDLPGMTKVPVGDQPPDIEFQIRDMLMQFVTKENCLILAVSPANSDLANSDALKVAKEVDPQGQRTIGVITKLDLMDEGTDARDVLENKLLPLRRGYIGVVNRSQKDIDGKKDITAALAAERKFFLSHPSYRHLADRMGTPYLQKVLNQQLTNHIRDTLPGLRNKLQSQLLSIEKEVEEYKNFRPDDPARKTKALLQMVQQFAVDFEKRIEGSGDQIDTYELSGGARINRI
Source text: as §1

[5] = biological target: T5, Alpha Acid Glucosidase (GAA), amino acids 513-953 (human, UniProt P10253 513-952)
T5 construct: range 513-953
Source text: as §1

T5 sequence (P10253 513-952 limits assumed): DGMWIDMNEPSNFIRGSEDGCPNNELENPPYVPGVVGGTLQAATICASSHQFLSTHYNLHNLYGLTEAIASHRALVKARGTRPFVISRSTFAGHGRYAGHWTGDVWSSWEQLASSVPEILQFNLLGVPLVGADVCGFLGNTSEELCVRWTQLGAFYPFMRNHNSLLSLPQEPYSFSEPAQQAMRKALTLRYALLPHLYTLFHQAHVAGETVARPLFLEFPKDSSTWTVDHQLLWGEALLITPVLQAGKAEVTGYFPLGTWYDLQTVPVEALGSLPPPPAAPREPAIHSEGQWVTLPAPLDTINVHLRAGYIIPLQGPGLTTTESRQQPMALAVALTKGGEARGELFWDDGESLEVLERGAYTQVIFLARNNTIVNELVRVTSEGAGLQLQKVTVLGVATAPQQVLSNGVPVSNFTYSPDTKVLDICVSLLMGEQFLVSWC

B1: Proteosome Activator Subunit Psme3, amino acids 72-254 (other, human, UniProt P61289 72-254, looked up)
chain: LTNSHDGLDGPTYKKRRLDECEEAFQGTKVFVMPNGMLKSNQQLVDIIEKVKPEIRLLIEKCNTVKMWVQLLIPRIEDGNNFGVSIQEETVAELRTVESEAASYLDQISRYYITRAKLVSKIAKYPHVEDYRRTVTEIDEKEYISLRLIISELRNQYVTLHDMILKNIEKIKRPRSSNAETLY
notes: range 72-254
binding result [1]: binds

B2: Akt kinase 2 (Akt2), amino acids 1-152 (enzyme, human, UniProt P31751 1-152, looked up)
chain: MNEVSVIKEGWLHKRGEYIKTWRPRYFLLKSDGSFIGYKERPEAPDQTLPPLNNFSVAECQLMKTERPRPNTFVIRCLQWTTVIERTFHVDSPDEREEWMRAIQMVANSLKQRAPGEDPMDYKCGSPSDSSTTEEMEVAVSKARAKVTMNDF
notes: range 1-152
binding result [2]: binds

B3: Akt kinase 2 (Akt2), amino acids 276-408 (enzyme, human, UniProt P31751 276-408, looked up)
chain: IKLENLMLDKDGHIKITDFGLCKEGISDGATMKTFCGTPEYLAPEVLEDNDYGRAVDWWGLGVVMYEMMCGRLPFYNQDHERLFELILMEEIRFPRTLSPEAKSLLAGLLKKDPKQRLGGGPSDAKEVMEHRF
notes: range 276-408
binding result [3]: binds

Continued, values first:

binding result [4]: binds
B4: GLUT1, amino acids 463-492 (other, human, UniProt P11166 463-492, looked up)
chain: IASGFRQGGASQSDKTPEELFHPLGADSQV
notes: range 463-492; also called Glucose Transporter 1

binding result [1]: binds
B5: Clathrin Assembly Protein (CALM), amino acids 267-484 (other, human, UniProt Q13492 267-484, looked up)
chain: LSQAPSSLLDALEQHLASLEGKKIKDSTAASRATTLSNAVSSLASTGLSLTKVDEREKQAALEEEQARLKALKEQRLKELAKKPHTSLTTAASPVSTSAGGIMTAPAIDIFSTPSSSNSTSKLPNDLLDLQQPTFHPSVHPMSTASQVASTWGDPFSATVDAVDDAIPSLNPFLTKSSGDVHLSISSDVSTFTTRTPTHEMFVGFTPSPVAQPHPSAG
notes: range 267-484

binding result [5]: binds
B6: PI-3 kinase p110 subunit, amino acids 1-300 (enzyme)
chain: MCFSFIMPPAMADILDIWAVDSQIASDGSIPVDFLLPTGIYIQLEVPREATISYIKQMLWKQVHNYPMFNLLMDIDSYMFACVNQTAVYEELEDETRRLCDVRPFLPVLKLVTRSCDPGEKLDSKIGVLIGKGLHEFDSLKDPEVNEFRRKMRKFSEEKILSLVGLSWMDWLKQTYPPEHEPSIPENLEDKLYGGKLIVAVHFENCQDVFSFQVSPNMNPIKVNELAIQKRLTIHGKEDEVSPYDYVLQVSGRVEYVFGDHPLIQFQYIRNCVMNRALPHFILVECCKIKKMYEQEMIAI
notes: range 1-300; also called PI-3K110; p110 catalytic subunit of PI-3 kinase
